The values that follow come from publication PMC8920335.

The nature of data set [1]: immunoblot of lysates and conditioned medium. To be noted: glycan lost; control: WT CGA. On the technique in general: In western blotting, separated proteins are transferred to a membrane and probed.
Data set [2] can be described thus: immunoblot after BMA or MG132 treatment. To be noted: glycan lost; control: WT CGA.

As to “CGA (glycoprotein hormone α polypeptide): N52Q”, in data set [1], the expression_or_secretion result is recorded as “decreases”. Moreover, the degradation_or_half_life entry in data set [2] is reported as “changes”.

Turning to “CGA (glycoprotein hormone α polypeptide): N52Q/N78Q double mutant (DM)”, the expression_or_secretion result in data set [1] was “decreases”.

Regarding “CGA (glycoprotein hormone α polypeptide): N78Q”, the expression_or_secretion result in data set [1] is “decreases”. The degradation_or_half_life entry in data set [2] is given as “changes”.
